Test results: US11136597B2, “Compositions for enhancing targeted gene editing and methods of use thereof” (Yale University, priority 2016, dated 2021)

B1: SCF: recombinant murine stem cell factor, the ligand for c-Kit (protein)
chain: MKEICGNPVTDNVKDITKLVANLPNDYMITLNYVAGMDVLPSHCWLRDMVIQLSLSLTTLLDKFSNISEGLSNYSIIDKLGKIVDDLVLCMEENAPKNIKESPKRPETRSFTPEEFFSIFNRSIDAFKDFMVASDTSDCVLSSTLGPEKDSRVSVTKPFMLPPVA

What was measured:
[1] = system: F508del CFTR; assay: Nasal potential difference (NPD) in CF mice after intranasal delivery; type: in vivo, mouse; settings: intranasal delivery of NPs
Description: (§1) FIG. 7A is a bar graph showing the results of a MQAE (N-(Ethoxycarbonylmethyl)-6-Methoxyquinolinium Bromide) assay (delta(AFU)/(delta(Time (sec)) measuring chloride flux for negative control CFBE cells; CFBE cells treated with blank nanoparticles, PNA2: lys-lys-lys-TJTJJTTT-OOO-TTTCCTCTATGGGTAAG-lys-lys-lys (SEQ ID NO:93)-loaded nanoparticles, PNA2 (SEQ ID NO:93)-loaded nanoparticles with an MPG peptide, γPNA2 lys-lys-lys-TJTJJTTT-OOO-TTTCCTCTATGGGTAAG-lys-lys-lys (SEQ ID NO:69)-loaded nanoparticles; and untreated positive control wildtype 16HBE14o-cells. FIG. 7B is a dot pot showing nasal potential difference (NPD) (pretreatment, after treatment with γPNA2 (SEQ ID NO:69)-loaded nanoparticles, and after treatment with blank nanoparticles) measured using a non-invasive assay used to detect chloride potential differences in vivo.
(§2) A substantial increase in gene editing in F508del CFTR using γtcPNAs with just partial γ substitution and only in the Hoogsteen domain of CF PNA2.

[2] = system: F508del CFTR; assay: MQAE assay measuring chloride flux in CFBE cells; type: cell-based; settings: NPs containing γtcPNAs with 4 γ residues in the Hoogsteen domain, versus unmodified PNA
Description: as §1, §2

[3] = system: DNA repair genes (Rad51, BRCA2); assay: Gene expression profiling of SCF-treated versus untreated CD117+ cells; type: cell-based, mouse
[4] = system: CD117+ cells from β-globin/GFP transgenic mice; assay: Ex vivo gene editing in pre-sorted CD117+ cells with or without SCF or c-Kit pathway kinase inhibitors; type: cell-based, mouse
Experimental: For CD117+ cell experiments, Iscove's Modified Dulbecco's Media (IMDM) media containing insulin (10 ng/ml), FCS (10%) and erythropoietin (1 U/ml) was used to culture CD117+ cells after isolation using magnetic separation. Where indicated, 3 μg/ml of SCF (Recombinant murine SCF, catalog #250-03, PeproTech, Rocky Hill, N.J.;) was added prior to nanoparticle treatment. 2 mg/ml of NPs were used to treat 50,000-100,000 CD117+ cells in triplicate for 48 hrs in the above media, followed by flow cytometry analyses as above. Inhibitors were used at concentrations of 200 nM (dasatinib), 1.0 μM (MEK162) and 3.0 μM (BKM120). Dasatanib was obtained from Cayman Chemical (Ann Arbor, Mich.; item #11498) and dissolved according to manufacturer's protocol. MEK162 and BKM120 were obtained from Dr. Harriet Kluger, Yale University.
BD Bioscience kit catalog #558451 (BDImag™ Hematopoietic Progenitor Stem Cell Enrichment Set—DM) was used to isolate CD117 cells. Enrichment for CD117 was confirmed by flow cytometry. CD117+ enriched cells were labeled with CD117-APC (BD Pharmingen™ catalog #558451) antibody. Cells were co-labelled with control IgG antibody (BD Pharmingen™ catalog #555746) for gating purposes. To quantify GFP expression, after CD117 co-labelling, flow cytometry was performed using FACScaliburS by resuspending cells in PBS/1% FBS where green fluorescent cells are measured in the Fl1 channel and APC stained cells are in the Fl4 channel Antibodies for other markers were Ter119 (BD Pharmingen™ catalog #561033) and CD45 APC (BD Pharmingen™ catalog #561018).
To explore the mechanism of the increased gene editing in CD117+ cells, the requirement of c-Kit-dependent signaling for elevated gene correction or whether CD117 simply serves as a marker for the increased susceptibility to gene editing was distinguished. To do this, γtcPNA4/donor DNA NP-mediated gene editing was assayed in pre-sorted CD117+ cells in the presence or absence of selected kinase inhibitors (FIG. 2D). Dasatinib, which inhibits the c-Kit kinase in addition to the BCR/Abl and Src kinases, reduced the gene editing from 7% to 2.0%.

[5] = system: human β-globin gene with the thalassemia-associated IVS2-654 mutation; assay: Disease phenotype in IVS2-654 β-thalassemic mice (blood smears, CBC, reticulocytes, spleen); type: in vivo, mouse; settings: day 36 after last treatment, four treatments at two-day intervals, SCF i.p., NPs i.v.
Experimental: The IVS2-654 β-thalassemic mice were also obtained from Ryszard Kole, University of North Carolina (Svasti, et al., Proc Natl Acad Sci USA, 106:1205-1210 (2009)). For treatment of the mice, where indicated SCF (15.6 ug per mouse, Recombinant Mouse SCF, carrier-free, R&D catalog #455-mc-050/CF) was injected intraperitoneally 3 hrs prior to treatment with 4 mg of NPs in 150 μl PBS delivered via retro-orbital intravenous injection. Each mouse received 4 treatments given at 48 hr intervals. Mice were anesthetized with isoflurane followed by retro-orbital bleeding (˜100 μL) using ethylenediaminetetraacetic acid-treated glass capillary tubes. The blood was evacuated into tubes with 5 μL of 0.5 M EDTA acid in heparinized coated tubes. Complete blood counts were performed using a Hemavet 950FS (Drew Scientific, Oxford, Conn.) according to the manufacturer's protocol. Slides containing blood smears were stained with Wright and Giemsa stain for microscopy. Methylene blue staining was used for reticulocyte counts. Spleen images and weights were taken after selected mice were sacrificed on day 36 after the last treatment. Harvested spleens were fixed in 10% neutral buffered formalin and processed by Yale Pathology Tissue Services for H&E, CD61 and E cadherin staining. […]

[6] = system: homology-dependent repair (HDR); assay: Luciferase reporter gene assay for homology-dependent repair (HDR) in CD117+ cells; type: cell-based, mouse
Experimental: An inactivating I-Sce1 site was cloned 56 amino acids into the firefly luciferase open reading frame under the control of a CMV promoter. The reporter construct also contains a promoterless luciferase gene used as a template for homologous recombination. A double-strand break in the luciferase reporter is created by in vitro digestion with the I-Sce I restriction enzyme (NEB #R0694L). Plasmid DNA was digested with I-Sce 1 for 1 hour at 37° C. at a ratio of 10 units enzyme to 1 μg DNA and then the enzyme was inactivated at 65° C. for 20 minutes. The linearization of the plasmid was confirmed for each digestion via gel electrophoresis and the linear plasmid was purified using the Qiagen Qiaquick spin columns. After separation CD117+ and CD117-cells from bone marrow of β-globin/GFP transgenic mice, cells were transfected using the Lonza 2b Nucleofector Device. 5×10^5 cells were transfected with 1 μg of either the luciferase reporter vector or a positive control firefly luciferase expression vector, along with 50 ng of a renilla luciferase expression plasmid as a transfection efficiency control. All transfections were performed in triplicate. After transfection the cells were plated at a density of 5×10^5 cells/ml in 12-well plates. After 24 hours incubation post transfection, luciferase activity was measured using the Promega Dual Luciferase Assay Kit. In each sample firefly luciferase activity was normalized to the renilla luciferase transfection control. Reporter reactivation was calculated as a ratio of normalized firefly luciferase activity in the cells transfected with the reporter plasmid to the positive control.
To test whether the above increases in DNA repair gene expression could be correlated with functional differences in DNA repair, a luciferase-based assay was used to quantify repair of DNA double-strand breaks (DSBs) by HDR. In this assay, repair of a DSB in a reporter plasmid via intramolecular homologous recombination creates (“reactivates”) a functional luciferase gene (FIG. 2H), and so the assay provides a measure of HDR capacity (FIG. 2J).

Row | Molecule | activity in vivo by NPD measurements [1] | increase in activity for CFTR gene correction (MQAE assay) [2] | DNA repair gene expression [3] | change of gene editing frequency on SCF treatment ([4]; CD117+ cells) | gene editing frequency in CD117+ cells treated with SCF ([4]; γtcPNA4/donor DNA NPs, 3 μg/ml SCF added prior to nanoparticle treatment) | RBC morphology in blood smears [5] | HDR repair activity (luciferase reactivation) in CD117+ cells ([6]; CD117+ cells) | fold increase in HDR ([6]; CD117+ cells treated with SCF)
1 | lys-lys-lys-TJTJJTTT-OOO-TTTCCTCTATGGGTAAG-lys-lys-lys (lysine caps, linker, γ residues, in nanoparticles, as printed in the source, key not given here) [γPNA2, CF PNA2 with 4 γ residues in the Hoogsteen domain, delivered in nanoparticles] | substantial increase in activity | more than 50% | – | – | – | – | – | –
2 | B1 | – | – | additional up-regulation of numerous DNA repair genes | almost doubles the frequency | ~15% | not | further boosted | 2 fold
